Measured values as given in patent US20070141048A1 (SYMPHOGEN A S, published 2007).

Molecular target: T1, Ovalbumin (UniProt P01012 2-386)
T1 sequence: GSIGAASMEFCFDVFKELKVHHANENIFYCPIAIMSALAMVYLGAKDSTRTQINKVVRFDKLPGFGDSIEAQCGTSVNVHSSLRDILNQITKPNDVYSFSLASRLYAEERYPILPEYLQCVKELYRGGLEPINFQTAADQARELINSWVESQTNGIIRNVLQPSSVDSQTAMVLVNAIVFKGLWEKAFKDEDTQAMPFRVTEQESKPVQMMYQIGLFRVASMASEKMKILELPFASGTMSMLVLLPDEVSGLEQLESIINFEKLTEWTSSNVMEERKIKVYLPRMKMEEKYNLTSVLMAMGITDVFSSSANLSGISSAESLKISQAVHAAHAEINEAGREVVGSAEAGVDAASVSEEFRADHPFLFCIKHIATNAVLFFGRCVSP
Test: ELISA, periplasmic extract on coated Ovalbumin

B1: g060h10 (Fab, V domains shown)
VH: EVQLVESGAEVKKPGSSVKVSCKASGGSFSTYAITWVRQAPGQGLEWMGGIIPIFASRDYAQKFQGRVTITADESTRTVYMELSSLRSDDTAVYYCARVLGGTRLYYALNVWGQGTTVTVS
VL: DIQLTQSPSSLSASVGDRVTITCRASQGISNFLAWYQQKPGKVPELLIYGASTLQSGVPSRFSGSGSGTEFTLTINSLQPEDVATYYCQKYDSGLRFTFGPGTKVDIK
B1: no binding (tested: 10 µg/ml Ovalbumin coat).

B2: g060d04 (Fab, V domains shown)
VH: KVQLVESGAEVKKPGSSVKVSCKASGGSFSTYAITWVRQAPGQGLEWMGGIIPIFASRDYAQKFQGRVTVTADESTRTVYMELSSLRSDDTAVYYCARVLGGTRLYYALNVWGQGTMVTVS
VL: DVVMTQFPSSLSASVGDRVTITCRASQGISNFLAWYQQKPGKVPELLIYGASTLQSGVPSRFSGSGSGAEFTLTINSLQPEDVATYYCQKYDSGLRFTFGPGTKVDIK
B2: no binding (tested: 10 µg/ml Ovalbumin coat).

B3: g060h02 (Fab, V domains shown)
VH: EVQLVQSGAEVKKPGSSVKVSCKASGGSFSTYAITWVRQAPGQGLEWMGGIIPIFASRDYAQKFQGRVTITADESTRTVYMEPRSLRSEDTAVYYCARVLGGTRLYYALNVWGQGTLVTVS
VL: EIVLTQSPSSLSASVGDRVTITCRASQGISNFLAWYQQKPGKVPELLIYGASTLQSGVPSRFSGSGSGTDFTLTINSLQPEDVATYYCQKYDSGLRFTFGPGAKVDIK
B3: no binding (tested: 10 µg/ml Ovalbumin coat).

B4: g060g11 (Fab, V domains shown)
VH: EVQLVESGAEVKKPGSSVKVSCKASGGSFSTYIFTWVRQAPGQGLEWMGGINPIFATRDYPKKFQGRVTITADESTRTVYMELSSLTSEDTAVYYCARVLGGTRLYYALNVWGQGTTVTVS
VL: EIVMTQSPSSLSASVGDRVTISCRASQGISNFLAWFQQKPGQVPKLLIYVASTLQSGVPSRFSGSGSGTDFSLTINGLQPEDVATYYCQRYDSGLIFTFGPGTKVEIK
B4: no binding (tested: 10 µg/ml Ovalbumin coat).

B5: g060d05 (Fab, V domains shown)
VH: KVQLVESGAEVKKPGSSVKVSCKTSGGSFSTYSITWVRQAPGQGLEWMGGINPIFATRDYAQKFQGRVTITADESTRTVYMELRNLRSEDTAVYYCARVFGGTRLYYALNVWGQGTLVTVS
VL: DVVMTQSPSSLSASVGDRVTITCRASQGISNFLAWHQQKPGQVPKLLIYGASTLQSGVPSRFSGSGSGTDFTLTINGLQPEDVATYYCQKYDSGLIFTFGPGTRVEIK
B5: no binding (tested: 10 µg/ml Ovalbumin coat).

B6: g060f09 (Fab, V domains shown)
VH: EVQLVQSGAEVKKPGSSVKVSCKTEGGTFSTYVISWMRQAPGQGLEWMGGIVPIFNTPNYAQKFQGRVTITADRSTSTAYMELRSLGSEDTAVYYCARVVGGTRSYYALGFWGQGTTVTVS
VL: DIQLTQSPSSLSASVGDSVTITCRASQGISNFLAWYQKKPGKVPRLLIYGASTLQSGVPSRFSGSGSGTDFTLTISSLQPEDVATYYCQEYSNALIFTFGPGTKVHIK
B6: no binding (tested: 10 µg/ml Ovalbumin coat).

B7: g060c07 (Fab, V domains shown)
VH: KVQLVQSGAEVKKPGESLKISCQASGYGFTVYWIGWVRQPPGKGLEWLGIIYPGDSDTRYNPSFQGQVTISADKSVSTTYLQWSSLKASDTAIYYCARHLDSYDVFTGYNLGGYMDVWGKGTLVTVS
VL: ETTLTQSPGTLSLSPGERATLSCRASQSVSTNYLAWYRQKPGQAPRLLIHGASSRATGIPDRFSGSGSGTDFTLTISRLEPEDFAVYFCQQYGSSPQTFGQGTRLEIK
B7: no binding (tested: 10 µg/ml Ovalbumin coat).

B8: g060g02 (Fab, V domains shown)
VH: EVQLVQSGAEVKKPGESLKISCQASGYGFTVYWIGWVRQLPGKGLEWLGIIYPGDSDTRYNPSFQGQVTISADKSVSTTYLQWSSLKASDTAIYYCARHLDSYDVFTGYNLGGYMDVWGKGTMVTVS
VL: DIQLTQSPGTLSLSPGERATLSCRASQSVSTNYLAWYRQKPGQAPRLLIHGASSRATGIPDRFSGSGSGTDFTLTISRLEPEDFAVYFCQQYGSSPQTFGQGTRLEIK
B8: no binding (tested: 10 µg/ml Ovalbumin coat).

B9: g060d11 (Fab, V domains shown)
VH: KVQLVQSGAEVKKPGESLKISCQASGYGFTVYWIGWVRQPPGKGLEWLGIIYPGDSDTRYNPSFQGQVTISADKSVSTTYLQWSSLKASDTAIYYCARHLDSYDVFTGYNLGGYMDVWGKGTLVTVS
VL: ETTLTQSPGTLSLSPGERATLSCRASQSVSTNYLAWYRQKPGQAPRLLIHGASSRATGIPDRFSGSGSGTDFTLTISRLEPEDFAVYFCQQYGSSPQTFGQGTRLEIK
B9: no binding (tested: 10 µg/ml Ovalbumin coat).

B10: g060a09 (Fab, V domains shown)
VH: GRAQVQLQESGPEVKKPGASVKVSCKASGYTFNSYGIAWVRQVPGQGLEWMGWISPYSGHTNYAEKVQGRVTMTTDTATSTACMELTSLRSDDTAVYFCARDYSSPYHFDYWGQGTWSPSR
VL: LADVVMTQSPSSLSASVGDRVTISCRASQPISTYLNWYQQKPGKAPKILIFGASRLQSGVPSRFSGSGSGTDFSLTITSLQPEDFATYICQQSKSPPYNFGRGTKLEIK
B10: no binding (tested: 10 µg/ml Ovalbumin coat).

B11: g060g04 (Fab, V domains shown)
VH: EVQLVQSGPGLVKPSETLSLTCAVSGASVSGGDYYWSWIRQPPGKALEWIGYIYYIGSTNYNPSLKSRLSLSVDTAKSQFSLKLSSVTAADTAIYFCARARRTYSGYDSAFDYWGQGTLVTVS
VL: DVVMTQSPSSLSASVGDRVSITCRASRSVKTYLNWYQQKPGKAPKLLVYGSSSLESGVPSRFSGSGSGTDFTLTISSLQPEDFATYYCQQSFGTPYTFGQGTKLDTK
B11: no binding (tested: 10 µg/ml Ovalbumin coat).

B12: g060h04 (Fab, V domains shown)
VH: EVQLVQSGPGLVKPSETLSLTCAVSGASVSGGDYYWSWIRQPPGKALEWIGYIYYIGSTNYNPSLKSRLSLSVDTAKSQFSLKLSSVTAADTATYFCARARRTYSGYDSAFDYWGQGTLVTVS
VL: DVVMTQSPSSLSASVGDRVSITCRASRSVKTYLNWYQQKPGKAPKLLVYGSSSLESGVPSRFSGSGSGTDFTLTISSLQPEDFATYCCQQSFGTPYTFGQGTKLDIK
B12: no binding (tested: 10 µg/ml Ovalbumin coat).

B13: g060g03 (Fab, V domains shown)
VH: EVQLVQSGPEVKKPGASVRVSCKASGYSLKNYGIHWVRQAPGQGLEWMGWISADNGDTTTALNLRGRVSMTTDTSTNTVYMEVKSLRSDDTAIYFCARDFYSGSYRSFDYWGQGTLVTVS
VL: DVVMTQSPSSLSASLGDRVTITCRASQHISNYLNWYQQKPGKAPKLLIYAASSLQSGVPSRFTGSGSGADYTLTISSLQPEDFATYYCQQSYSTSWTFGQGTTVGIK
B13: no binding (tested: 10 µg/ml Ovalbumin coat).

B14: g060a01 (Fab, V domains shown)
VH: QVQLVQSGPEVKKPGASVRVSCKASGYSFKNYGIHWVRQAPGQGLEWMGWISADNGDTTTALNLRGRVSMTTDTSTNTVYMEVKSLRSDDTAIYFCARDFYSGSYRSFDCWGQGTLVTVS
VL: EIVLTQSPSSLSASLGDRVTITCRASQHISNYLNWYQQKPGKAPKLLICAASSLQSGVPSRFTGSGSGADYTLTISSLQPEDFATYYCQQSYSTSWTFGQGTTVEIK
B14: no binding (tested: 10 µg/ml Ovalbumin coat).

B15: g060a10 (Fab, V domains shown)
VH: QITLKESGPTLVKPTQTLTLTCTLSGFSLYTTGVGVGWIRQPPGKALEWLARIYWDDDERYNPSLKSRLTITKDASKNQVVLKMTNMDPVDTATYYCARTMGVVLPFDYWGQGTLVTVS
VL: EIVLTQSPSTLSASVGDRVTITCRASQSIGSWLAWYQQKPGKAPKLLIYKASTLQSETPSRFRGSGSGTEFTLTISSLQPDDFATYYCQQFNSFSPWTFGQGTKVEFK
B15: no binding (tested: 10 µg/ml Ovalbumin coat).

B16: g060b09 (Fab, V domains shown)
VH: QVQLQESGPTLVKPTQTLTLTCSFSGFSLGTTGVNVGWIRQPPGKALEWLALISWDGGKHYSPSLNSRITLTKDASREQVVVPTMTNMDPADTGRYYCARIVGTHGFDYWGQGTLVTVS
VL: EIVLTQSPSFLSASVGDRVTITCRASQGIGNFLAWYQQKPGKAPKLLISGASTLQSWVPSRFSGRGSGTEFTLTISSLQPEDFATYYCQQLNRYPPYTFGQGTKLEIK
B16: no binding (tested: 10 µg/ml Ovalbumin coat).

B17: g060f10 (Fab, V domains shown)
VH: QVTLKESGPTLVKPTQTLTLTCTFSGFSLGTTGVNVGWIRQPPGKALEWLALISWGGGKHYSPSLNSRITLTKDASREQVVVLTMANMDPVDTGRYYCARIVGTHGFDYWGQGTLVTVS
VL: EIVMTQSPSFLSASVGDRVTITCRASQGIGNFLAWYQQKPGKAPKLLISGASTLQSWVPSRFSGRGSGTEFTLTISSLQPEDFATYYCQQLNRYPPYTFGQGTKLEIK
B17: no binding (tested: 10 µg/ml Ovalbumin coat).

B18: g060f11 (Fab, V domains shown)
VH: EVQLVQSGGGVVRPGGSLRLSCAGSGFTFDEYAMSWVRQAPGKGLEWVAFINWNGDSTYYADSVKGRFTVSRTNAKNSLYLQMNSLRAEDTAFYYCARDPRTKLGMSYFDYWGQGTLVTVS
VL: EIVMTQSPSSLSASVGDRVTITCRASQTISNHLNWYQQKPGRAPKLLIYVGSSLQSGVPSRFSGSGSGTDFTLTISGLQPEDFATYYCQQSYSPSYTFGQGTKVEIK
B18: no binding (tested: 10 µg/ml Ovalbumin coat).

B19: g060g12 (Fab, V domains shown)
VH: EVQLVQSGGGVVRPGGSLRLSCAGSGFTFDEYAMSWVRQAPGKGLKWVAFINWNGDSTYYADSVKGRFTVSRSNAKNSLYLQMNSLRAEDTAFYCCARDPRTKLGMSYFDYWGQGTLVTVS
VL: DIQMTQSPSSLSASVGDRVTITCRASQTISNHLNWYQQKPGRAPKLLIYVGSSLRSGVPSRFSGSGSGTDFTLTISGLQPEDFATYYCQQSYSPSYTFGQGTKVEIK
B19: no binding (tested: 10 µg/ml Ovalbumin coat).
